Consider three molecules from patent US20140017734.

The target in series [1] is Monoscaffoldin (truncated CipA), Cohesin 2-CBM3a (UniProt Q06851).
In series [2] the target is T1, Monoscaffoldin (truncated CipA), Cohesin 2-CBM3a, Q06851.
T1 chain: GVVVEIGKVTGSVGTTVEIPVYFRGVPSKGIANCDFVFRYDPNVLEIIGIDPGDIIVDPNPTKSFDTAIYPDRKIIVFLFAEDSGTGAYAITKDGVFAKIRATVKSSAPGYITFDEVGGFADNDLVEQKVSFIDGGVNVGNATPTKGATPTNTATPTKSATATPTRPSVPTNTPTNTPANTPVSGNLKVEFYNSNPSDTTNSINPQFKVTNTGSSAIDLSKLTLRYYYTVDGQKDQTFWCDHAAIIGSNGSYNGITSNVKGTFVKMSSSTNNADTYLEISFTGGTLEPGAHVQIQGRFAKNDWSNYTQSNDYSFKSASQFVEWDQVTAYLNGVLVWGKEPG

As to “Chimera1 of CbhA (CBM4-Ig-GH9-linker1-CBM3b-Doc)”, the “yield of soluble sugar from Avicel after 119 hour digestion, with the adaptor relative to without it” value (“yield … with the adaptor relative to without it” for short) in series [1] is “increased by factors of 1.55 and 1.73”.

B1: Chimera2 of CbhA (CBM4-Ig-GH9-linker2-CBM3b-Doc) (protein)
chain: LEDNSSTLPPYKNDLLYERTFDEGLCYPWHTCEDSGGKCSFDVVDVPGQPGNKAFAVTVLDKGQNRWSVQMRHRGLTLEQGHTYRVRLKIWADASCKVYIKIGQMGEPYAEYWNNKWSPYTLTAGKVLEIDETFVMDKPTDDTCEFTFHLGGELAATPPYTVYLDDVSLYDPEYTKPVEYILPQPDVRVNQVGYLPEGKKVATVVCNSTQPVKWQLKNAAGVVVLEGYTEPKGLDKDSQDYVHWLDFSDFATEGIGYYFELPTVNSPTNYSHPFDIRKDIYTQMKYDALAFFYHKRSGIPIEMPYAGGEQWTRPAGHIGIEPNKGDTNVPTWPQDDEYAGIPQKNYTKDVTGGWYDAGDHGKYVVNGGIAVWTLMNMYERAKIRGLDNWGPYRDGGMNIPEQNNGYPDILDEARWEIEFFKKMQVTEKEDPSIAGMVHHKIHDFRWTALGMLPHEDPQPRYLRPVSTAATLNFAATLAQSARLWKDYDPTFAADCLEKAEIAWQAALKHPDIYAEYTPGSGGPGGGPYNDDYVGDEFYWAACELYVTTGKDEYKNYLMNSPHYLEMPAKMGENGGANGEDNGLWGCFTWGTTQGLGTITLALVENGLPATDIQKARNNIAKAADRWLENIEEQGYRLPIKQAEDERGGYPWGSNSFILNQMIVMGYAYDFTGDSKYLDGMFDGISYLLGRNAMDQSYVTGYGERPLQNPHDRFWTPQTSKRFPAPPPGIISGGPNSRFEDPTINAAVKKDTPPQKCFIDHTDSWSTNEITVNWNAPFAWVTAYLDEQYTDSETDTPTPTATPAPTVTPTPTPAPTPTPTPTPTATPTPTPTPTPTATPTVTATPTPTPSSTPVKVQYLCENTQTSTQEIKGKFNIVNTGNRDYSLKDIVLRYYFTKEHNSQLQFICYYTPIGSGNLIPSFGGSGDEHYLQLEFKDVKLPAGGQTGEIQFVIRYADNSFHDQSNDYSFDPTIKAFQDYGKVTLYKNGELVWGTPPGGTEPEEPEEPAIVYGDCNDDGKVNSTDVAVMKRYLKKENVNINLDNADVNADGKVNSTDFSILKRYVMKNIEELPYR
B1: the “yield … with the adaptor relative to without it” value in series [2] is “increased by factors of 1.55 and 1.73”.

B2: wild-type CbhA from Clostridium thermocellum (CBM4-Ig-GH9-linker3-CBM3b-Doc) (protein)
chain: MKFRRSICTAVLLAVLLTLLVPTSVFALEDNSSTLPPYKNDLLYERTFDEGLCYPWHTCEDSGGKCSFDVVDVPGQPGNKAFAVTVLDKGQNRWSVQMRHRGLTLEQGHTYRVRLKIWADASCKVYIKIGQMGEPYAEYWNNKWSPYTLTAGKVLEIDETFVMDKPTDDTCEFTFHLGGELAATPPYTVYLDDVSLYDPEYTKPVEYILPQPDVRVNQVGYLPEGKKVATVVCNSTQPVKWQLKNAAGVVVLEGYTEPKGLDKDSQDYVHWLDFSDFATEGIGYYFELPTVNSPTNYSHPFDIRKDIYTQMKYDALAFFYHKRSGIPIEMPYAGGEQWTRPAGHIGIEPNKGDTNVPTWPQDDEYAGIPQKNYTKDVTGGWYDAGDHGKYVVNGGIAVWTLMNMYERAKIRGLDNWGPYRDGGMNIPEQNNGYPDILDEARWEIEFFKKMQVTEKEDPSIAGMVHHKIHDFRWTALGMLPHEDPQPRYLRPVSTAATLNFAATLAQSARLWKDYDPTFAADCLEKAEIAWQAALKHPDIYAEYTPGSGGPGGGPYNDDYVGDEFYWAACELYVTTGKDEYKNYLMNSPHYLEMPAKMGENGGANGEDNGLWGCFTWGTTQGLGTITLALVENGLPATDIQKARNNIAKAADRWLENIEEQGYRLPIKQAEDERGGYPWGSNSFILNQMIVMGYAYDFTGDSKYLDGMFDGISYLLGRNAMDQSYVTGYGERPLQNPHDRFWTPQTSKRFPAPPPGIISGGPNSRFEDPTINAAVKKDTPPQKCFIDHTDSWSTNEITVNWNAPFAWVTAYLDEQYTDSETDKVTIDSPVAGERFEAGKDINISATVKSKTPVSKVEFYNGDTLISSDTTAPYTAKITGAAVGAYNLKAVAVLSDGRRIESPVTPVLVKVIVKPTVKLTAPKSNVVAYGNEFLKITATASDSDGKISRVDFLVDGEVIGSDREAPYEYEWKAVEGNHEISVIAYDDDDAASTPDSVKIFVKQARDVKVQYLCENTQTSTQEIKGKFNIVNTGNRDYSLKDIVLRYYFTKEHNSQLQFICYYTPIGSGNLIPSFGGSGDEHYLQLEFKDVKLPAGGQTGEIQFVIRYADNSFHDQSNDYSFDPTIKAFQDYGKVTLYKNGELVWGTPPGGTEPEEPEEPAIVYGDCNDDGKVNSTDVAVMKRYLKKENVNINLDNADVNADGKVNSTDFSILKRYVMKNIEELPYR
Take B2: in series [2], the “yield … with the adaptor relative to without it” value was “increased by a factor of only 1.09”.
